{"source": "the RNAGym collection of RNA variant scans (doi:10.7554/elife.80360)", "parents": {"B1": {"name": "Twister Ribozyme (parent)", "chain": "AACACUGCCAAUGCCGGUCCCAAGCCCGGAUAAAAGUGGAGGGGGCGG"}}, "data": [{"variants_of": "B1", "test": "self-cleavage, relative activity (ratio to wild type); higher = more cleavage; co-transcriptional", "values": [{"variant": "AACACUGCCAAAGGCGGUCCCAAGCCCGGAUAAAAGUGGAGGGGGCGG", "self-cleavage": 0.0875}, {"variant": "AACACUGCCAUUGCCGGUCCCAAGCCCAGAUAAAAGUGGAGGGGGCGG", "self-cleavage": 1.02}, {"variant": "AACACUGCCAUUGCCGGUCCCAAGCCCUGAUAAAAGUGGAGGGGGCGG", "self-cleavage": 0.968}, {"variant": "AACACUGCCAUUGCCGGUCCCAAGCCCGGAUAAAAGUGGAGGGGACGG", "self-cleavage": 1.13}, {"variant": "AACACUGCCAUUCCCGGUCCCAAGCCCGGAUAAAAGUGGAGGGGGCGG", "self-cleavage": 0.592}, {"variant": "AACACUGCCAUUGCCGGUCCCAAGCCCGUAUAAAAGUGGAGGGGGCGG", "self-cleavage": 1.04}, {"variant": "AACACUGCCAUUGCCGGUCCCAAGCCCGCAUAAAAGUGGAGGGGGCGG", "self-cleavage": 1.02}, {"variant": "AACACUGCCAAAGCCGGUACCAAGCCCGGAUAAAAGUGGAGGGGGCGG", "self-cleavage": 0.342}, {"variant": "AACACUGCCAUUGCCGGUCCCAAGCCCGGAUACAAGUGGAGGGGGCGG", "self-cleavage": 0.909}, {"variant": "AACACUGCCAUUGCCGGUCCCAAGCCCGGAUAGAAGUGGAGGGGGCGG", "self-cleavage": 0.839}, {"variant": "AACACUGCCAUUGCCGGUCCCAAGCCCGGAUAAAAGUCGAGGGGGCGG", "self-cleavage": 1.08}, {"variant": "AACACUGCCAGCGCCGGUCCCAAGCCCGGAUAAAAGUGGAGGGGGCGG", "self-cleavage": 1.13}, {"variant": "AACACUGCCAUUGCCGGUCCCAAACCCGGAUAAAAGUGGAGGGGGCGG", "self-cleavage": 0.108}, {"variant": "AACACUGCCAUUGCCGGUCCCAAUCCCGGAUAAAAGUGGAGGGGGCGG", "self-cleavage": 0.105}, {"variant": "AACACUGCCAUUGCCGGUCCCAAGCCCGGAUAAACGUGGAGGGGGCGG", "self-cleavage": 0.997}, {"variant": "AACACUGCCAUUGCCGGUCCCAAGCCCGGAUAAAUGUGGAGGGGGCGG", "self-cleavage": 1.12}, {"variant": "AACACUGCCAAAGCCGGUCCCAGGCCCGGAUAAAAGUGGAGGGGGCGG", "self-cleavage": 0.768}, {"variant": "AACACUGCCAAAGCCGGUCCCACGCCCGGAUAAAAGUGGAGGGGGCGG", "self-cleavage": 0.394}, {"variant": "AACACUGCCAUUGCCGGUCCCAAGCCCGGAUAAAAGUGCAGGGGGCGG", "self-cleavage": 0.149}, {"variant": "AACACUGCCAUUGCCGGUCCCAAGCCCGGAUAAAAGUGUAGGGGGCGG", "self-cleavage": 0.279}, {"variant": "AACACUGCCAUUGCCGGUCCCAAGCCCGGAUAAAAGUGGACGGGGCGG", "self-cleavage": 0.374}, {"variant": "AACACUGCCAUUGCCGGUCCCAAGCCCGGAUAAAAGUGGAAGGGGCGG", "self-cleavage": 0.747}, {"variant": "AACACUGCCAGUGCCGGUCCCAAGCCCGGAGAAAAGUGGAGGGGGCGG", "self-cleavage": 1.1}, {"variant": "AACACUGCCAGUGCCGGUCCCAAGCCCGGAAAAAAGUGGAGGGGGCGG", "self-cleavage": 0.348}, {"variant": "AACACUGCCAGUGCCGGUCCCAAGCCCGGACAAAAGUGGAGGGGGCGG", "self-cleavage": 0.736}, {"variant": "AACACUGCCAUUGCCGGUCCCAAGCCCGGAUAAAAGUGGAGGGGGCAG", "self-cleavage": 0.937}, {"variant": "AACACUGCCAGUGCCGGUCCCAAGCCCGGAUAAAAGUGGAGGAGGCGG", "self-cleavage": 0.234}, {"variant": "AACACUGCCAGUGCCGGUCCCAAGCCCGGAUAAAAGUGGAGGCGGCGG", "self-cleavage": 0.169}, {"variant": "AACACUGCCAUUGCCGGUCCGAAGCCCGGAUAAAAGUGGAGGGGGCGG", "self-cleavage": 0.0514}, {"variant": "AACACUGCCAUUGCCGGUCCAAAGCCCGGAUAAAAGUGGAGGGGGCGG", "self-cleavage": 0.114}, {"variant": "AACACUGCCAAAGCCGGUCCCAAGCCCGGAUAAAUGUGGAGGGGGCGG", "self-cleavage": 1.06}, {"variant": "AACACUGCCAUUGCCGGUCCCAAGCCCGGAUAAAAGUGGAGGGGGGGG", "self-cleavage": 0.978}, {"variant": "AACACUGCCAUUGCCGGUCCCAAGCCCGGAUAAAAGUGGAGGGGGUGG", "self-cleavage": 0.914}, {"variant": "AACACUGCCAGUGCCGGCCCCAAGCCCGGAUAAAAGUGGAGGGGGCGG", "self-cleavage": 0.382}, {"variant": "AACACUGCCAGUGCCGGACCCAAGCCCGGAUAAAAGUGGAGGGGGCGG", "self-cleavage": 0.61}, {"variant": "AACACUGCCAUUGCCGGUCCCAUGCCCGGAUAAAAGUGGAGGGGGCGG", "self-cleavage": 0.765}, {"variant": "AACACUGCCAUUGCCGGUCCCACGCCCGGAUAAAAGUGGAGGGGGCGG", "self-cleavage": 0.241}, {"variant": "AACACUGCCAAAGCCGGUCCCAAGCCCGGAUAAAAGUGGCGGGGGCGG", "self-cleavage": 0.291}, {"variant": "AACACUGCCAUUGCCGGUCCCAAGCCCGGAAAAAAGUGGAGGGGGCGG", "self-cleavage": 0.918}, {"variant": "AACACUGCCAUUGCCGGUCCCAAGCCCGGAGAAAAGUGGAGGGGGCGG", "self-cleavage": 0.893}, {"variant": "AACACUGCCAAAGCCGGUCCCAAGCCCGGAUAACAGUGGAGGGGGCGG", "self-cleavage": 0.36}, {"variant": "AACACUGCCAUUGCCGGUCACAAGCCCGGAUAAAAGUGGAGGGGGCGG", "self-cleavage": 0.178}, {"variant": "AACACUGCCAAAGCCGGUCCCAAGCCCGGAUAUAAGUGGAGGGGGCGG", "self-cleavage": 1.14}, {"variant": "AACACUGCCAAAGCCGGUCCCCAGCCCGGAUAAAAGUGGAGGGGGCGG", "self-cleavage": 1.08}, {"variant": "AACACUGCCAAAGCCGGUCCCAAGCCAGGAUAAAAGUGGAGGGGGCGG", "self-cleavage": 0.744}, {"variant": "AACACUGCCAAAGCCGGUCCCAAGCCUGGAUAAAAGUGGAGGGGGCGG", "self-cleavage": 0.945}, {"variant": "AACACUGCCAUUGCCGGUCCCAAGCCCGGAUAAAAGUGGAGGGGGCGC", "self-cleavage": 1.12}, {"variant": "AACACUGCCAUUGCCGGUCCCAAGCCCGGAUAAAAGUGGAGGGGGCGA", "self-cleavage": 0.951}, {"variant": "AACACUGCCAUUGCCGGUCCCAAGCCCGGAUAAAAGUGGAGGGGGCGU", "self-cleavage": 1.12}, {"variant": "AACACUGCCAAAGCCGGUCCGAAGCCCGGAUAAAAGUGGAGGGGGCGG", "self-cleavage": 0.122}, {"variant": "AACACUGCCAAAGCCGGUCCUAAGCCCGGAUAAAAGUGGAGGGGGCGG", "self-cleavage": 0.164}, {"variant": "AACACUGCCAUUGCCGAUCCCAAGCCCGGAUAAAAGUGGAGGGGGCGG", "self-cleavage": 0.497}, {"variant": "AACACUGCCAUUGCCGUUCCCAAGCCCGGAUAAAAGUGGAGGGGGCGG", "self-cleavage": 0.264}, {"variant": "AACACUGCCAUUGCCGCUCCCAAGCCCGGAUAAAAGUGGAGGGGGCGG", "self-cleavage": 0.111}]}]}
